Laboratory results published in patent US20240116985A1 (published 2024).
Starred links: 1 amine or outer side, 2 acyl side, 3 side chain; linkers in the order of their positions; H or OH if unused. Positions of bridges follow the written chain, without caps; N, C: chain ends. Non-standard residues stand in square brackets, D forms with d. Primed or numbered codes have the meaning given here. RdN(3) = (R)-4-(((allyloxy)carbonyl)(methyl)amino)-2-amino-2-methylbutanoic acid, stapling residue, C=CCOC(=O)N(C)CC[C@@](C)(N[*:1])C(=O)[*:2]; RdN″ = (R)-4-(((allyloxy)carbonyl)(methyl)amino)-2-amino-2-methylbutanoic acid (stapling residue), C=CCOC(=O)N(C)CC[C@@](C)(N[*:1])C(=O)[*:2]; PyrS(3) = (S)-1-((allyloxy)carbonyl)-3-aminopyrrolidine-3-carboxylic acid, stapling residue, C=CCOC(=O)N1CC[C@@](N[*:1])(C(=O)[*:2])C1; PyrS″ = (S)-1-((allyloxy)carbonyl)-3-aminopyrrolidine-3-carboxylic acid (stapling residue), C=CCOC(=O)N1CC[C@@](N[*:1])(C(=O)[*:2])C1; PyrS = (S)-1-((allyloxy)carbonyl)-3-aminopyrrolidine-3-carboxylic acid, C=CCOC(=O)N1CC[C@@](N[*:1])(C(=O)[*:2])C1; S7 = C[C@@](CCCCCC=[*:3])(N[*:1])C(=O)[*:2]; d(αMeF) = C[C@@](N)(Cc1ccccc1)C(=O)O; R8 = C=CCCCCCC[C@@](C)(N)C(=O)O; Cha = N[C@@H](CC1CCCCC1)C(=O)O; hLeu = CC(C)CC[C@H](N)C(=O)O; S5 = C=CCCC[C@](C)(N)C(=O)O; Nle = CCCC[C@H](N)C(=O)O

T1: full-length beta-Catenin (Uniprot ID P35222) (Homo sapiens (Human), UniProt P35222 2-781)
T1 construct: Used full-length in both the FP and the AlphaScreen assay; also called B-Catenin; bCat
T1 sequence: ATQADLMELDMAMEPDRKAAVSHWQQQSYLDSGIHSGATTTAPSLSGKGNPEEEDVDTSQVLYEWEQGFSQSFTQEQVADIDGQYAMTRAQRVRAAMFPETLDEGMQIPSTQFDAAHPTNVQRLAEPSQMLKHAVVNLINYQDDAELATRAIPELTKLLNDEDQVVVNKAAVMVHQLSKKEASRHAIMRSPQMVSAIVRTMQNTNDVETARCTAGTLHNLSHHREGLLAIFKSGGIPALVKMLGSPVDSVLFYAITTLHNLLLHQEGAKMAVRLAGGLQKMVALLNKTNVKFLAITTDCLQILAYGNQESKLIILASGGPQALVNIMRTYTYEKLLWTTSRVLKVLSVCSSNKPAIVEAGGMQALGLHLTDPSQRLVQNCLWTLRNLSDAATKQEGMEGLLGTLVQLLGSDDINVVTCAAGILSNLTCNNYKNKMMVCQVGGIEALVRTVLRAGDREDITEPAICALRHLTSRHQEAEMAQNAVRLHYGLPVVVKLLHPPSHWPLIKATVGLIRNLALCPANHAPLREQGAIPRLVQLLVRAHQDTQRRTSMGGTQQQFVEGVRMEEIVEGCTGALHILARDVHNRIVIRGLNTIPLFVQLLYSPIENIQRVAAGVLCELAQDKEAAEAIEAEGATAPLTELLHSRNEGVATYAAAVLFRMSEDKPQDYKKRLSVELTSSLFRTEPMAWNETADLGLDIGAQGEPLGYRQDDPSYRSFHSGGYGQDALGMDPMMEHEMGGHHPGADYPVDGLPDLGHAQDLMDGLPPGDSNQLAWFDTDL

B1: I-46 (peptide)
peptide: FDAXDDAAFVXFWQ
modifications: not fully specified; N-terminal Ac; C-terminal NH2; RgN at 4 and S7 at 11, stapled
notes: Stapled peptide; also called Ac-Phe-Asp-Ala-RgN-Asp-Asp-Ala-Ala-Phe-Val-S7-Phe-Trp-Gln-NH2
B2: I-56 (peptide)
peptide: Ac-FDA[R8]D[d(αMeF)]AAFV[PyrS″]FWQ-NH2
modifications: staple 4-11
notes: Stapled peptide; also called Ac-Phe-Asp-Ala-R8-Asp-aMeDF-Ala-Ala-Phe-Val-PyrS-Phe-Trp-Gln-NH2
B3: I-57 (peptide)
peptide: Ac-FDA[R8]D[d(αMeF)]AAFV[PyrS″]FWQ-NH2
modifications: staple 4-11; not fully specified
notes: as for B2
B4: I-58 (peptide)
peptide: Ac-FDA[R8]DQAAFV[PyrS]FWQ-NH2
modifications: staple 4-11; not fully specified; printed as Ac-Phe-Asp-Ala-R8-Asp-Gln-Ala-Ala-Phe-Val-PyrS-Phe-Trp-Gln-NH2
notes: Stapled peptide; also called Ac-Phe-Asp-Ala-R8-Asp-Gln-Ala-Ala-Phe-Val-PyrS-Phe-Trp-Gln-NH2
B5: I-59 (peptide)
peptide: Ac-FDA[R8]DQAAFV[PyrS″]FWQ-NH2
modifications: staple 4-11; not fully specified; printed as Ac-Phe-Asp-Ala-R8-Asp-Gln-Ala-Ala-Phe-Val-PyrS-Phe-Trp-Gln-NH2
notes: as for B4
B6: I-62 (peptide)
peptide: Ac-FDA[R8]DDAAFV[PyrS″]YWQ-NH2
modifications: staple 4-11; not fully specified; printed as Ac-Phe-Asp-Ala-R8-Asp-Asp-Ala-Ala-Phe-Val-PyrS-Tyr-Trp-Gln-NH2
notes: Stapled peptide; also called Ac-Phe-Asp-Ala-R8-Asp-Asp-Ala-Ala-Phe-Val-PyrS-Tyr-Trp-Gln-NH2
B7: I-63 (peptide)
peptide: Ac-FDA[R8]DDAAFV[PyrS]YWQ-NH2
modifications: staple 4-11; not fully specified; printed as Ac-Phe-Asp-Ala-R8-Asp-Asp-Ala-Ala-Phe-Val-PyrS-Tyr-Trp-Gln-NH2
notes: as for B6
B8: I-47 (peptide)
peptide: Ac-FD[R8]ADDAAF[S5]AFWQ-NH2
modifications: staple 3-10; also: staple isomer composition: earlier-eluting HPLC peak
notes: Stapled peptide; also called Ac-Phe-Asp-R8-Ala-Asp-Asp-Ala-Ala-Phe-S5-Ala-Phe-Trp-Gln-NH2
B9: I-48 (peptide)
peptide: FDXADDAAFXAFWQ
modifications: not fully specified; N-terminal Ac; C-terminal NH2; R8 at 3 and S5 at 10, stapled
notes: as for B8
B10: I-49 (peptide)
peptide: Ac-FD[RdN(3)]ADDAAF[S7]AFWQ-NH2
modifications: staple 3-10; also: earlier-eluting HPLC isomer, E/Z not assigned
notes: Stapled peptide; also called Ac-Phe-Asp-RdN-Ala-Asp-Asp-Ala-Ala-Phe-S7-Ala-Phe-Trp-Gln-NH2
B11: I-50 (peptide)
peptide: Ac-FD[RdN(3)]ADDAAF[S7]AFWQ-NH2
modifications: staple 3-10; also: later-eluting HPLC isomer, E/Z not assigned
notes: as for B10
B12: I-51 (peptide)
peptide: Ac-FD[R8]ADDAAF[PyrS(3)]AFWQ-NH2
modifications: staple 3-10
notes: Stapled peptide; also called Ac-Phe-Asp-R8-Ala-Asp-Asp-Ala-Ala-Phe-PyrS-Ala-Phe-Trp-Gln-NH2
B13: I-60 (peptide)
peptide: Ac-FDA[R8]DDAAFV[PyrS][Cha]WQ-NH2
modifications: staple 4-11
notes: Stapled peptide; also called Ac-Phe-Asp-Ala-R8-Asp-Asp-Ala-Ala-Phe-Val-PyrS-Cha-Trp-Gln-NH2
B14: I-61 (peptide)
peptide: Ac-FDA[R8]DDAAFV[PyrS][Cha]WQ-NH2
modifications: staple 4-11
notes: as for B13
B15: I-68 (peptide)
peptide: Ac-ADI[RdN″]D[Nle]AAFQ[S7]FWH-NH2
modifications: staple 4-11
notes: Stapled peptide; also called Ac-Ala-Asp-Ile-RdN-Asp-nLeu-Ala-Ala-Phe-Gln-S7-Phe-Trp-His-NH2
B16: I-69 (peptide)
peptide: Ac-ADI[RdN″]D[Nle]AAFQ[S7]FWH-NH2
modifications: staple 4-11
notes: as for B15
B17: I-70 (peptide)
peptide: Ac-ADI[RdN″]D[hLeu]AAFQ[S7]FWH-NH2
modifications: staple 4-11
notes: Stapled peptide; also called Ac-Ala-Asp-Ile-RdN-Asp-hLeu-Ala-Ala-Phe-Gln-S7-Phe-Trp-His-NH2
B18: I-71 (peptide)
peptide: Ac-ADI[RdN″]D[hLeu]AAFQ[S7]FWH-NH2
modifications: staple 4-11
notes: as for B17

target: T1, full-length beta-Catenin (Uniprot ID …); test: AlphaScreen competition; full-length beta-catenin, biotin-TCF4(10-53) probe
Description: Equal volume of the titrated peptide was added to the plate and incubated for 15 minutes at 20° C. Then 4 uL of donor and 4 uL acceptor beads at 10 ug/mL were added to the plate, for a 16 uL reaction pool and protected from light for 60 minutes at 20° C. prior to read. Reads were performed on a CLARIOstar plate reader (BMG Labtech) in duplicate, and data were fitted to a 1:1 binding model with hill slope using an in-house script. All provided concentrations are final concentrations.

Question: Which EC50 does the source give for B1 here?
Answer: ≥ 10 µM

Question: With B2 as the binder, how does the EC50 read?
Answer: ≥ 10 µM

Question: How did the EC50 turn out when B3 was run?
Answer: ≥ 10 µM

Question: With B4 as the binder, how does the EC50 read?
Answer: ≥ 10 µM

Question: For B5, which EC50 is on record?
Answer: 9.88 µM

Question: For B6, which EC50 is on record?
Answer: ≥ 10 µM

Question: For B7, which EC50 is on record?
Answer: ≥ 10 µM

Question: B8 was tested. Which EC50 did it give?
Answer: ≥ 10 µM

Question: Which EC50 does the source give for B9 here?
Answer: ≥ 10 µM

Question: Which EC50 does the source give for B10 here?
Answer: ≥ 10 µM

Question: Which EC50 does the source give for B11 here?
Answer: ≥ 10 µM

Question: For B12, which EC50 is on record?
Answer: ≥ 10 µM

Question: B13 was tested. Which EC50 did it give?
Answer: ≥ 10 µM

Question: For B14, which EC50 is on record?
Answer: 8.9 µM

Question: How did the EC50 turn out when B15 was run?
Answer: 8.12 µM

Question: How did the EC50 turn out when B16 was run?
Answer: 9.1 µM

Question: For B17, which EC50 is on record?
Answer: ≥ 10 µM

Question: For B18, which EC50 is on record?
Answer: ≥ 10 µM
